Results reported in US20250195685A1 (CAPSTAN THERAPEUTICS, published 2025).

Columns and labels:
[1] = target: T1, human CD8αα homodimer, recombinant protein (Acro Biosystems) (human, UniProt P01732 22-182); assay: BLI, whole antibody
T1 construct: also called CD8αα antigen; biotinylated CD8α recombinant protein (CDA-H82E3)

insulin (Sigma) = target: T2, insulin (Sigma); assay: polyreactive ELISA, insulin coated, 100 nM antibody
T2 construct: Antigen of the polyreactivity ELISA
Protocol: Insulin ([…]; Sigma) and dsDNA ([…]; Sigma) were coated onto 96-well high-binding ELISA microplates (Corning) at 50 μL per well overnight at 4° C. Plates were blocked with PBS with 0.5% BSA (blocking buffer) at room temperature (RT) for 1 h, followed by three washes with PBST (PBS with 0.1% Tween-20). 50 μL of 100 nM antibody in blocking buffer was added to each well and incubated at RT for 1 h, followed by six washes with 100 μL of PBS. 50 μL of diluted anti-human IgG-horseradish peroxidase (HRP) conjugate (Jackson ImmunoResearch) was added to the wells and incubated for 1 h followed by another six washes. Finally, 50 μL of 3, 3′, 5, 5′-Tetramethylbenzidine (TMB) substrate (Fisher Scientific) was added to each well to develop the detection signal. The reactions were stopped by adding 50 μL of 2 M sulfuric acid to each well. The absorbance was measured at 450 nm using a multimode microplate reader. Ustekinumab as the control antibody with low polyreactivity and bococizumab as a highly polyreactive antibody control were also included in the polyreactive ELISA assessment.
The first assessment tested for low non-specific binding to dsDNA and insulin by ELISA. […] Thus, by this standard, none of the tested antibodies were polyreactive.

[2] = target: T1, human CD8αα homodimer, recombinant …; assay: BLI steady state analysis of the data of FIG. 2D
Protocol: The global fitting was performed with a 1:1 fitting model using GatorOne software as described below.
To assess affinity of whole antibodies, steady state analysis was used as the bivalent nature of both whole antibody and CD8α complicates kinetic analysis. 50 nM CD8α-His (that is, CD8α with a C-terminal oligohistidine tag; Acro) was immobilized on Ni-NTA sensor probes. Binding was analyzed with a three-fold antibody dilutions series: 60 nM, 20 nM, 6.67 nM, 2.22 nM, 0.74 nM, and 0.25 nM. The antigen-loaded sensors were incubated in the diluted solutions to capture the whole IgG antibody for 300 s to record the association phase. Sensors were incubated in the kinetic buffer for 900 s to record the dissociation phase. The spin speed was 1000 rpm for all steps except the antigen loading step which was 400 rpm to control density of the antigen. The temperature of the performed assays was at 30° C. during the association and dissociation phases. The sensor data were baseline subtracted and further analyzed in GatorOne software (version 2.10) to determine the equilibrium dissociation constants (KD) of the antibodies by fitting the signals of the steady states to the 1:1 binding model.

[3] = target: T1, human CD8αα homodimer, recombinant …; assay: BLI binding kinetic analysis, whole antibody, sample stressed at pH 8.5, 40 °C, 3 days

T1 sequence (P01732 22-182 limits assumed): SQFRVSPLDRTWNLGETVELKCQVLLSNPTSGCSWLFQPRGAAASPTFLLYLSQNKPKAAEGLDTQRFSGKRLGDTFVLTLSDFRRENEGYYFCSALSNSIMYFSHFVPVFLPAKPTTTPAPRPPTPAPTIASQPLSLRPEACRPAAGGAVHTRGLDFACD
T2 sequence (P01308 25-54, chain 1 of 2): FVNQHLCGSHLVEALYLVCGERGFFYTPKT
T2 sequence (P01308 90-110, chain 2 of 2): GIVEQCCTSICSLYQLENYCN

B1: CBD1033 whole antibody, human IgG1 with Fc-silencing mutations L234A, L235A and P329A (CBD1033-hIgG1-LALAPA) (antibody, V domains shown)
VH: QVQLVQSGAEVKKPGASVKVSCKASRYTFTDYNLHWVRQAPGQGLEWMGFIYPYNGGTGYAQKFQGRVTMTVDTSTSTAYMELSSLRSEDTAVYYCARDHRYNEGVSFDYWGQGTTVTVSS
VL: DIQLTQSPSSLSASVGDRATITCRASESVDGFGNSFMNWYQQKPGKAPKLLIYLASNLESGVPSRFSGSGSGTDFTLTISSVQPEDFATYYCQQNNEDPYTFGQGTKLEIKR
notes: On tLNPs the antibody was SATA-modified or AJICAP-thiolated (CBD1033.29) and conjugated to the LNP; also called CBD1033.3; CBD1033 IgG1
- koff [1]: 0.00307 s⁻¹
- kon [1]: 1.85e+06 M⁻¹ s⁻¹
- polyreactivity ELISA score (insulin (Sigma)): 1
- Kd [2]: 2.27 nM
- Kd [3]: 2 nM
- koff [3]: 0.00314 s⁻¹
- kon [3]: 1.57e+06 M⁻¹ s⁻¹
